Measurements taken from patent US8003360B2, “Debaryomyces castellii phytase” (Adisseo France S.A.S., priority 2005, dated 2011).

Tests used:
[1] = test system: Schwanniomyces occidentalis phytase; settings: Segueilha et al., 1992; cited from earlier work
[2] = target: Debaryomyces castellii CBS 2923 phytase, native (wild type), SEQ ID No. 2 (Schwanniomyces capriottii, UniProt A2TBB4); experiment: Influence of effectors on the phytase activity; format: biochemical; settings: Table 3
Protocol: (§1) The amount of phosphate released is measured by colorimetery. The visualizing solution, prepared extemporaneously, contains iron sulphate (380 mM, 1 volume) and ammonium heptamolybdate (12 mM, 4 volumes). The absorbance at 700 nm is measured after 30 minutes of visualization at ambient temperature (1 volume of reaction medium+1 volume of visualizing solution), using a UV/visible spectrophotometer (Beckman DU 530).

D. castellii phytase = experiment: Influence of effectors on phytase activity; format: biochemical, Debaryomyces castellii
[3] = test system: Schwanniomyces occidentalis phytase; settings: Segueilha et al., 1992; cited from earlier work; remark: listed apart in the source
[4] = target: recombinant Debaryomyces castellii CBS 2923 phytase (recPhyt, expressed in Pichia pastoris), SEQ ID No. 2 (Schwanniomyces capriottii, UniProt A2TBB4); experiment: Hydrolysis of inositol phosphates by the recombinant phytase (chromatogram); format: biochemical; settings: InsP3 compared with InsP4, InsP5 and InsP6
Protocol: (§2) Samples are taken at various times for 6 hours. The reaction is stopped by heating at 100° C. (10 minutes).
(§3) J. Agric. Food Chem. 45, 431-436; Türk, M., Sandberg, A. S., Carlsson, N. G. and Andlid, T. (2000) Inositol hexaphosphate hydrolysis by baker's yeast. Capacity, kinetics, and degradation products. J. Agric. Food Chem. 48, 100-104). […] This system makes it possible to detect the Ins P2 to Ins P6, but only the various isomers of Ins P4 and Ins P5 can be separated.
See Example 1, 7.5 and 7.6.

[5] = Storage stability of the phytase at -20° C. at various pHs; format: physicochemical
[6] = pH-stability and temperature-stability of the phytase; format: physicochemical; settings: for denaturation: 1 hour
Protocol: FIG. 4: Study of the pH-stability and temperature-stability. The phytase activity of D. castellii is measured after treatment of the extract at various pHs for 1 hour at two temperatures (40° C. or 60° C.). The activity is measured at pH 4.
The phytase activity is measured after incubation of the enzyme at 2 temperatures (40 and 60° C.) in buffers whose pH is between 2 and 8 (FIG. 4). […] On the other hand, in the range 3 to 7, from 80 to 100% of activity is conserved at 40° C. At 60° C., the phytase is more highly denatured at pH 3 and pH 8.

[7] = Phytase activity as a function of temperature; format: biochemical; settings: reaction of phytate hydrolysis
Protocol: FIG. 2: Activity of the D. castellii phytase as a function of temperature. The activity is measured at pH 4, at 37° C. for 20 minutes.
(§4) The effect of pH on the phytase activity is determined using the following buffer solutions: 200 mM glycine-HCl, pH 2-3.5; 200 mM sodium acetate-acetic acid, pH 3.5-7; and 200 mM tris-HCl, pH 7-9. The reactions are carried out at +37° C. using the phytate as substrate. The optimum temperature is determined by varying the temperature from +30° C. to +80° C. […] After the heat treatment, the mixture is cooled in ice and the phytase activity is determined using the phytate as substrate.
The optimum temperature is determined on the native phytase, by measuring the phytase activity at various temperatures: from 30 to 80° C. (FIG. 2).

[8] = Hydrolysis kinetics of InsP6 followed by NMR; format: biochemical
Protocol: The time period between two spectra is 23 minutes. After an overnight period, 20 μl of enzyme were added in order to accelerate the reaction. After 16 h, the hydrolysis is complete and the spectrum characteristic of inositol is obtained (top spectrum). These kinetics clearly show the successive appearance of InsP5, of InsP4 and of InsP3.
FIG. 10: Faster kinetics making it possible to follow the complete hydrolysis of InsP6 (600 MHz, 17° C., 500 μl D2O, 3.8 mM of InsP6, pH 4.0, 5 μl of enzyme). A spectrum was recorded every 3 min for 20 h (400 spectra). After 10 hours, the hydrolysis is virtually complete. The spectra plotted correspond to one spectrum out of 10 (30 min between two spectra). Some characteristic signals are annotated.
The sample used to follow the hydrolysis by NMR is prepared from a stock solution of InsP6/phosphate buffer, 96/700 mM in D2O. […] Depending on the desired rate of hydrolysis, a greater or smaller amount of enzyme (1 to 20 μl of the stock solution at 3 U/ml) is added. The kinetics are followed at 17° C. by recording a spectrum (32 scans) every 3 minutes for 20 hours (400 spectra). Using the spectra characteristic of the various inositol phosphates determined previously, their appearance and disappearance can be followed over the entire kinetics.
Depending on the temperature (in this case 17° C.) and on the concentration of enzyme, kinetics can be slow (1 μl of enzyme) and the appearance of the first intermediates readily observed. It is under these conditions that the spectral characteristics of InsP5 were obtained and that the successive appearance of Ins P5, Ins P4 and Ins P3 is clearly seen.
In the presence of 5 μl of enzyme, the formation of Ins P2, Ins P1 and inositol is observed. In the intermediate phase, the complexity of the spectra obtained accounts for the mixture of the Ins Pns. After hours, the hydrolysis is not complete. In the presence of 20 μl of enzyme, complete hydrolysis was obtained in approximately 4 hours. […]

[9] = Heat denaturation / heat stability of the phytase; format: physicochemical
Protocol: FIG. 3: Heat denaturation of the D. castellii phytase. […] The activity is then measured at 37° C. for 20 min.
as §4
It is denatured above 68° C., with a 70% loss of activity after one hour at 70° C. The energy for activation of the denaturation, calculated by means of the Arrhenius representation, is 606 kJ/mol.

[10] = test system: Debaryomyces castellii CBS2923 phytase; experiment: Influence of the environment (additives, calcium, buffer molarity) on thermostability of the phytase; format: physicochemical; settings: control: 250 mM acetate buffer pH 4, 1 mM calcium chloride, no additive
Protocol: At the end of treatment, the extract is cooled in water at +4° C. […] Three types of elements are tested: • sugars or sugar alcohol: sucrose, lactose, trehalose, arabinose, glycerol, • the absence of calcium, • the molarity of the buffer. […] At the end of treatment, the extract is cooled in water to +4° C. […] Materials and Methods).

[11] = Specific phytase activity by phytate hydrolysis; format: biochemical; settings: native D. castellii phytase, purification steps
Protocol: The protein content is determined by the Bradford method (Bradford, M. (1976) A rapid and sensitive method for the quantification of microgram quantities of proteins utilizing the principle of protein-dye binding. Anal. Biochem. 72, 248-254). (Biorad Protein Assay Dye Reagent Concentrate, BIORAD 500-0006), the absorbance is measured at 595 nm (Beckman DU 530 UV/visible spectrophotometer). The calibration is carried out with a bovine serum albumin range.
One enzymatic unit (U) is defined as the amount of enzyme which releases one μmol of inorganic phosphate in one minute.
as §1

[12] = Hydrolysis of phytic acid followed over time (HPIC, phosphate assay); format: biochemical; settings: after 300 minutes of hydrolysis, pH 4, 0.6 U/ml
Protocol: as §2, §3
The hydrolysis conditions are described in Materials and Methods. The appearance of the various Ins Pn is monitored over time. After 15 minutes of hydrolysis, Ins P6 has virtually disappeared, 4 major peaks are detected and correspond to Ins (1,2,4,5,6) P5, Ins (1,2,5,6) P4, and peaks of Ins P3, Ins P2 and Ins P1 not identified by this method (FIG. 7). The assignment of the Ins P5 and Ins P4 is confirmed by the addition of authentic inositol samples. After 120 minutes of hydrolysis, the Ins P3 and Ins P1 peaks are predominant. This could reflect a much slower rate of hydrolysis of Ins P3 compared with Ins P4, 5 and 6. […] The enzyme releases all the phosphates. The characterization of the Ins Pn fractions separated by chromatography is carried out by NMR analysis.

O=C(O)c1cc[c]([Hg][Cl])cc1 [PCMB]
inhibition of the activity (in words) [1]: greatly inhibits
effect on the phytase activity (in words) [2]: not sensitive
% activity (D. castellii phytase; effector 3 mM, phytate control = 100): 94.5%
effect on phytase activity (D. castellii phytase; inhibitors tested, see Table 3): absence of effect
effect on phytase activity [3]: greatly inhibits

InsP3
affinity (in words) [4]: weaker affinity

B1: D. castellii phytase: Debaryomyces castellii CBS 2923 phytase of SEQ ID No. 2, a secreted glycosylated 3-phytase (protein, listed as Debaryomyces castellii)
chain: MVSVSKLINNGLLLVGQGAYQDLASPQQASVEQYNIIRFLGGAAPYIQNKGFGISTDIPDQCTLEQVQLFSRHGERYPSTGSGKKYKAVYEKLMSYNGTFKGELAFLNDDYEYFVPDSVYLEKETSPKNSDSIYAGTTDAMKHGIAFRTKYGELFDTNDTLPVFTSNSGRVYQTSQYFARGFMGDDFSNDTVKTNIISEDADMGANSLTPRDGCFNYNENANTAIVDEYTTEYLTKALNRFKASNPGLNITEDDVSNLFGYCAYELNVKGASPMCDIFTNEEFIQYSYSVDLDDYYSNSAGNNMTRVIGSTLLNASLELLNHDKNENKIWLSFTHDTDIEIFHSAIGILIPDEDLPVDYTPFPSPYSHVGITPQGARTIIEKYACGNESYVRYVINDAVIPIKKCSSGPGFSCNLNDYNDYVAERVAGTNYVEQCGNNNASAVTFYWDYETTNYTASLINS
modifications: glycosylated
denaturation after storage ([5]; 21 days at -20° C., pHs of less than 5): completely denatured
denaturation after storage ([5]; 67 days at -20° C., pHs of between 5 and 7): no denaturation
activity after 1 hour of contact ([6]; pH 2 and pH 8, 40 and 60° C.): complete loss of activity
denaturation ([6]; pH 8, acetate buffer): complete
denaturation ([6]; pH 8, tris HCl buffer): 50%
activation energy calculated according to the Arrhenius representation [7]: 9.08 kcal/mol
time after which hydrolysis of InsP6 is complete ([8]; 1.7 mM InsP6, pH 4.0, 17° C., 1 μl enzyme, 20 μl added after an overnight period): 16 h
time after which hydrolysis of InsP6 is virtually complete ([8]; 3.8 mM InsP6, pH 4.0, 5 μl of enzyme, 17° C.): ~10 h
time to complete hydrolysis of InsP6 ([8]; 20 μl of enzyme, 17° C.): approximately 4 hours
loss of activity ([9]; after one hour at 70° C.): 70%
energy for activation of the denaturation (Arrhenius representation) ([9]; heat denaturation): 145 kcal/mol
temperature above which the enzyme is denatured ([9]; heat denaturation study): above 68 °C
temperature up to / below which the enzyme is stable ([9]; heat denaturation study): up to 66 °C
temperature at which the enzyme is stable for one hour ([9]; in 125 mM acetate buffer, pH 4): 66 °C
temperature at which the enzyme is stable for one hour ([9]; in water): 60 °C
activity after 1 h at 20° C. [10]: 99
activity after 1 h at 66.5° C. [10]: 47
Specific activity [11]: 156 U/mg
amount of phosphate assayed as share of the potential phosphates of the phytate molecule [12]: 100%
